Results taken from the supplement of paper PMC10724198.
± gives the standard deviation of the averaged measurements.

Test system: Saccharomyces cerevisiae
Experiment: protein stability index of tFT-peptide fusion (C-terminal peptide) (PSI (0-1 scale)); higher = more stable (slower turnover)
Conditions: genetic background: wild type; temperature: 30 C
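Further: PSI is a weighted mean of sequencing reads over stability bins, variants kept only with over 10 reads, mCherry proximal and sfGFP distal, peptide attached via GGGS linker.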

Sequence	protein stability index
RGRGGGGVVGRW	0.7119 ± 0.0022
RGRGKVGLWEGS	0.669 ± 0.067
RGRMGLGAPGGG	0.615 ± 0.0085
RGRPRRGGGVSG	0.727 ± 0.047
RGSAPLFVPLSP	0.7106 ± 0.0069
RGVLRSETCRLS	0.7104 ± 0.0069
RGWGWGRKVSVG	0.62 ± 0.069
RGYVGVTQVCKN	0.695 ± 0.043
RHDMTSGCVSHS	0.703 ± 0.039
RHGLPPAPILSP	0.661 ± 0.038
RHILFLLLTPHS	0.5774 ± 0.0026
RHLACFWFRPPW	0.694 ± 0.018
RHLRSGTRAKVY	0.678 ± 0.013
RHPALPGPPGSS	0.698 ± 0.13
RIAEYIDTKCPR	0.708 ± 0.0074
RICTLCRGGRTP	0.673 ± 0.03
RIDRDDHLVPNS	0.626 ± 0.092
RIERIYEIKKNR	0.68086 ± 7.2e-05
RIIIRNIKKKTE	0.641 ± 0.023
RILIRVQSSKLR	0.671 ± 0.09
RILNADSREHSS	0.775 ± 0.12
RIVASTLKSYLT	0.68835 ± 0.00068
RIVQQATHVREH	0.787 ± 0.011
RKEKKMKITKRC	0.691 ± 0.044
RKEQKGKGKEGG	0.697 ± 0.024
RKFLCKSPIECS	0.574 ± 0.015

Sequence	protein stability index
RKHMCSYIRVSR	0.723 ± 0.085
RKINQKNNEKNS	0.648 ± 0.0037
RKIRRLIVKKGI	0.67 ± 0.022
RKKENRYKIEVK	0.6799 ± 0.0017
RKKGRKKKQDKN	0.689 ± 0.023
RKKIKRKNNKEK	0.685 ± 0.052
RKKKKDKSAIKE	0.722 ± 0.018
RKKRRKVKRSEK	0.547 ± 0.034
RKKTKKEKSEEI	0.694 ± 0.031
RKLHDKDDPKTI	0.681 ± 0.03
RKMQKKFESKKM	0.76 ± 0.039
RKMTSIINKKTV	0.513 ± 0.0083
RKNENKKKKNKK	0.702 ± 0.012
RKQHKLRKTKRA	0.657 ± 0.061
RKQKRGSKKKKQ	0.721 ± 0.049
RKQRERGKCGKR	0.726 ± 0.031
RKRHDLPPAGPH	0.713 ± 0.023
RKRTIVCRPGRV	0.698 ± 0.021
RKSKYKGTQRIN	0.564 ± 0.011
RKTQKIEQKQKE	0.756 ± 0.076
RKVTKLYDNIML	0.776 ± 0.1
RKVVLLFGLGEG	0.669 ± 0.026
RLAPASAFPHSP	0.687 ± 0.052
RLAVGMIRPQGE	0.637 ± 0.024
RLDGVTPVRTCL	0.661 ± 0.054
RLEDGCGVGAGR	0.645 ± 0.015

Sequence	protein stability index
RLFPSPIYLARF	0.676 ± 0.12
RLGECSRKSYHT	0.692 ± 0.024
RLGGLLCSPLVD	0.705 ± 0.097
RLGPSAPLFVHL	0.542 ± 0.042
RLGRATLLLLFF	0.572 ± 0.12
RLHSLLFYALGS	0.668 ± 0.028
RLLASIRAAQAS	0.525 ± 0.1
RLLDLRLYVGKG	0.618 ± 0.012
RLLENVSYDWRN	0.714 ± 0.016
RLLFPPPMLPPP	0.735 ± 0.038
RLLGSSPAVLLY	0.628 ± 0.062
RLLLSVLFGFFA	0.5248 ± 0.0011
RLLYGICLLGAS	0.558 ± 0.092
RLPPPPSPPPPP	0.688 ± 0.016
RLPPPSPPVPLL	0.695 ± 0.0081
RLPVKQQVLPDK	0.6783 ± 0.0062
RLQSSRQMLVPS	0.63729 ± 0.00036
RLRESMYPSSEE	0.717 ± 0.0085
RLREVVHKYNSI	0.757 ± 0.086
RLRRSSSNPHSP	0.656 ± 0.043
RLSCCKCRGGAV	0.6979 ± 0.0042
RLSFSVPPCLDI	0.691 ± 0.032
RLSLGPGLLGSH	0.74 ± 0.014
RLSNIARRQENG	0.623 ± 0.017
RLSPPPTLSRFH	0.643 ± 0.03
RLSSPTRINHPN	0.71 ± 0.04

Sequence	protein stability index
RLTLKKMIKQNV	0.56 ± 0.016
RLTLPSQPHAPA	0.694 ± 0.098
RLTYVGDYELYV	0.686 ± 0.053
RLVAHPSRPLPV	0.647 ± 0.033
RLVISPRSRPCP	0.725 ± 0.069
RLVLRGRWGIGR	0.618 ± 0.0014
RLVTSCSAAGSG	0.671 ± 0.007
RLWKQPWLTMAF	0.496 ± 0.038
RLWPPGGEFRLV	0.719 ± 0.078
RLWSSFKRHGAA	0.743 ± 0.022
RLYCSWEFTFVQ	0.617 ± 0.019
RMATGNPAPHPP	0.735 ± 0.04
RMSHFNTDSVHF	0.761 ± 0.019
RNGALSVVCDYV	0.698 ± 0.15
RNIMKQQNTSIR	0.717 ± 0.078
RNIQKKKKIQHI	0.514 ± 0.047
RNKEPRSSRQNS	0.578 ± 0.009
RNRTNVETKTGS	0.6966 ± 0.0034
RPAPPLFVSSPG	0.699 ± 0.0097
RPAPPPHPLSPV	0.7 ± 0.031
RPEVRIHITSQS	0.655 ± 0.017
RPFPLTRPTLLF	0.67 ± 0.016
RPGDAASGARGA	0.691 ± 0.081
RPGPRAASADCP	0.72 ± 0.025
RPIPMEGAYYLV	0.693 ± 0.027
RPKPKRIGREEP	0.63 ± 0.083

Sequence	protein stability index
RPLPPLPPPSCP	0.71 ± 0.046
RPLPPPPPPRSP	0.741 ± 0.21
RPPAPQTATPHR	0.726 ± 0.013
RPPCFRPPPPPL	0.715 ± 0.072
RPPPGTPPGWSP	0.73 ± 0.028
RPPPPLPQAPPT	0.679 ± 0.0082
RPPPPPSPPPPP	0.674 ± 0.073
RPPPPSPAPTPP	0.723 ± 0.045
RPPPRPPHPPPL	0.6791 ± 0.0048
RPPYIALAPSDR	0.694 ± 0.0097
RPPYRRSPPRSP	0.616 ± 0.019
RPRVETGGLPWV	0.703 ± 0.029
RPSHSRPITLPT	0.707 ± 0.12
RPSLPPSPPPPP	0.848 ± 0.22
RPSLTPSPPPFP	0.64 ± 0.018
RPSPSAQFITCA	0.646 ± 0.013
RPSVSNVSEAEE	0.6479 ± 0.0037
RPTPLSTPPPLG	0.644 ± 0.039
RPTQYIYGINET	0.6525 ± 0.0034
RQDGSPREGIRH	0.713 ± 0.04
RQKNKIATVVEE	0.664 ± 0.026
RQRSTGGISNRS	0.718 ± 0.043
RQSLEDSLLHQH	0.774 ± 0.081
RRAAVGGCLGGW	0.726 ± 0.017
RRAAYARVFCRI	0.641 ± 0.046
RRADFSWPVVVE	0.591 ± 0.022

Sequence	protein stability index
RRARSAGADPRP	0.684 ± 0.02
RRDRRVGEGEGV	0.699 ± 0.059
RREKQKTPAKKT	0.634 ± 0.034
RRGEKKDEKGGR	0.67 ± 0.062
RRGLHWQAVCRY	0.733 ± 0.023
RRGRNDLEESMR	0.702 ± 0.0078
RRGVAEGVDGEG	0.615 ± 0.0071
RRGYEVSSLSDD	0.672 ± 0.0042
RRHRPKNEVPLC	0.705 ± 0.029
RRIIISSSYIYE	0.672 ± 0.012
RRIQNHPDSTSA	0.696 ± 0.067
RRKGVAGKWARR	0.586 ± 0.058
RRKLMLWTSKLE	0.705 ± 0.05
RRLLLAGTQLYV	0.598 ± 0.073
RRLMMPSGQGLT	0.702 ± 0.031
RRLNNTPPVENC	0.753 ± 0.15
RRNDRKKKSIRI	0.684 ± 0.059
RRPAPTRPPHTK	0.711 ± 0.013
RRPLAPHPPLPP	0.678 ± 0.01
RRPLLSTPAPCS	0.755 ± 0.025
RRPRKSAAGLRG	0.768 ± 0.08
RRPRPRSGWILL	0.69 ± 0.047
RRRRSITEHRSS	0.69279 ± 0.00018
RRRSSRPAPPPL	0.698 ± 0.023
RRRTGRRNCTET	0.712 ± 0.038
RRSIAVEFSGTG	0.679 ± 0.041

Sequence	protein stability index
RRSTIHSRLFGA	0.6786 ± 0.0041
RRTKKERQKSWK	0.649 ± 0.038
RRVCLIASLWGC	0.625 ± 0.023
RRVELCWAAGVR	0.641 ± 0.025
RRVGVVAWGRGG	0.71 ± 0.01
RRVRGGAAEKET	0.723 ± 0.1
RSALFLLTLVPI	0.565 ± 0.018
RSDKRTRYRIII	0.751 ± 0.17
RSFFDRLNRSLS	0.666 ± 0.032
RSFYDNVLRPFK	0.776 ± 0.035
RSGENTVKPVRQ	0.658 ± 0.029
RSGGGRRGVGWV	0.641 ± 0.067
RSGGVRCNDVRR	0.675 ± 0.05
RSGSGGVAGRRE	0.692 ± 0.022
RSLLLINRPTPP	0.714 ± 0.015
RSLPSSPTPPED	0.755 ± 0.081
RSLVALSRRLRG	0.6374 ± 0.0023
RSLWGPRVGVFA	0.594 ± 0.014
RSPLNTAPLRNR	0.682 ± 0.025
RSPRSSSPHPIY	0.7649 ± 0.006
RSPSCSPSAVPL	0.738 ± 0.063
RSQIHEILLYLF	0.492 ± 0.082
RSQRRWCSKIRV	0.625 ± 0.095
RSRLPPPPLLFP	0.702 ± 0.048
RSRLPTPRLYPP	0.708 ± 0.01
RSRPPPPPLLFP	0.701 ± 0.043

Sequence	protein stability index
RSRSKKKKRKQY	0.671 ± 0.042
RSRTSKGGNFII	0.6766 ± 0.0053
RSSNRRAIRSHD	0.7106 ± 0.0019
RSTPRPSSRDSL	0.7789 ± 0.006
RSTQRWAVAWSG	0.678 ± 0.09
RSVPLLNPGFHY	0.663 ± 0.026
RSYSSTGAGDDK	0.721 ± 0.15
RTAGSARIESAL	0.645 ± 0.017
RTDALKVVADMI	0.682 ± 0.034
RTEMASLERKSF	0.696 ± 0.017
RTGGIVATRASE	0.779 ± 0.13
RTHPPADAWYLS	0.698 ± 0.035
RTPMAIDALCGS	0.637 ± 0.045
RTPPLPLLPPHP	0.788 ± 0.052
RTQKNMKKSYCG	0.63 ± 0.0075
RTQMLIIDKRNS	0.6437 ± 0.0028
RTRMSEGECIST	0.708 ± 0.053
RTRPAMSRCSKR	0.704 ± 0.045
RTRRRQELNHSK	0.735 ± 0.2
RTSNARLLPRIG	0.681 ± 0.034
